Laboratory results as given in PMC7115751, “Identification and functional characterization of a β-glucosidase from Bacillus tequelensis BD69 expressed in bacterial and yeast heterologous systems” (PeerJ, 2020).

Substrate: O=[N+]([O-])c1ccc(O[C@@H]2O[C@H](CO)[C@@H](O)[C@H](O)[C@H]2O)cc1
Assay: purified protein
Assay type: biochemical, Bacillus tequilensis
Conditions: pH 5.0 acetate buffer, 50 °C, pNPG 2–20 mM, no metal or NAD cofactor mentioned

Protein	Km [mM]	kcat/Km [M⁻¹ s⁻¹]
Bteqβgluc (pPIC-Bteqβgluc) (Bacillus tequilensis) (protein, full-length ORF (1,329 bp; 443 residues) in pPIC9K, secreted from Pichia pastoris GS115, purified by anion exchange; no His tag mentioned) MTKGLKIVTIGGGSSYTPVLVEGFIKRYDELPVRELWLVDIPEGEEKLNIVGTLAKRMVEKAGVPIDIHLTPDRRKALKDADFVTTQFRVGLLQARAKDERIPLKYGVIGQETNGPGGLFKGLRTIPVILEIAKDIEELCPNAWLVNFTNPAGMVTEALLRYSNLKKVVGLCNVPIGIKMGVAKALDVDVDRVEVQFAGLNHMVFGLDVFLDGVSVKEQVIEAMGDPKNAMTMKNTSGAEWEPDFLKALNVIPCGYHRYYFKTKEMLEHELEASQTEGTRAEVVQKVEKELFELYKDPNLAIKPPQLEKRGGAYYSDAACNLISSIYNDKHDIQPVNTINNGAIASIPDDSAVEVNCVMTKTGPKPIAVGDLPVSVRGLVQQIKSFERVAAEAAVTGDYQTALLAMTTNPLVPSDAVAKQILDDMLEAHKAYLPQFFNKIEA	7.43	1020
Bteqβgluc (pET-Bteqβgluc) (Bacillus tequilensis) (protein, full-length ORF (1,329 bp; 443 residues) in pET-30a(+), His-tagged, E. coli BL21(DE3) pLysS) MTKGLKIVTIGGGSSYTPVLVEGFIKRYDELPVRELWLVDIPEGEEKLNIVGTLAKRMVEKAGVPIDIHLTPDRRKALKDADFVTTQFRVGLLQARAKDERIPLKYGVIGQETNGPGGLFKGLRTIPVILEIAKDIEELCPNAWLVNFTNPAGMVTEALLRYSNLKKVVGLCNVPIGIKMGVAKALDVDVDRVEVQFAGLNHMVFGLDVFLDGVSVKEQVIEAMGDPKNAMTMKNTSGAEWEPDFLKALNVIPCGYHRYYFKTKEMLEHELEASQTEGTRAEVVQKVEKELFELYKDPNLAIKPPQLEKRGGAYYSDAACNLISSIYNDKHDIQPVNTINNGAIASIPDDSAVEVNCVMTKTGPKPIAVGDLPVSVRGLVQQIKSFERVAAEAAVTGDYQTALLAMTTNPLVPSDAVAKQILDDMLEAHKAYLPQFFNKIEA	8.43	887
